Measurements taken from patent US20020127673A1 (REGENTS OF THE UNIVERSITY OF MICHIGAN, published 2002).

B1: TRAF-2 (other, UniProt Q12933 1-501, looked up)
chain: MAAASVTPPGSLELLQPGFSKTLLGTKLEAKYLCSACRNVLRRPFQAQCGHRYCSFCLASILSSGPQNCAACVHEGIYEEGISILESSSAFPDNAARREVESLPAVCPSDGCTWKGTLKEYESCHEGRCPLMLTECPACKGLVRLGEKERHLEHECPERSLSCRHCRAPCCGADVKAHHEVCPKFPLTCDGCGKKKIPREKFQDHVKTCGKCRVPCRFHAIGCLETVEGEKQQEHEVQWLREHLAMLLSSVLEAKPLLGDQSHAGSELLQRCESLEKKTATFENIVCVLNREVERVAMTAEACSRQHRLDQDKIEALSSKVQQLERSIGLKDLAMADLEQKVLEMEASTYDGVFIWKISDFARKRQEAVAGRIPAIFSPAFYTSRYGYKMCLRIYLNGDGTGRGTHLSLFFVVMKGPNDALLRWPFNQKVTLMLLDQNNREHVIDAFRPDVTSSSFQRPVNDMNIASGCPLFCPVSKMEAKNSYVRDDAIFIKAIVDLTGL
notes: Construct and tag not described
B2: RIP (enzyme, UniProt Q13546 1-671, looked up)
chain: MQPDMSLNVIKMKSSDFLESAELDSGGFGKVSLCFHRTQGLMIMKTVYKGPNCIEHNEALLEEAKMMNRLRHSRVVKLLGVIIEEGKYSLVMEYMEKGNLMHVLKAEMSTPLSVKGRIILEIIEGMCYLHGKGVIHKDLKPENILVDNDFHIKIADLGLASFKMWSKLNNEEHNELREVDGTAKKNGGTLYYMAPEHLNDVNAKPTEKSDVYSFAVVLWAIFANKEPYENAICEQQLIMCIKSGNRPDVDDITEYCPREIISLMKLCWEANPEARPTFPGIEEKFRPFYLSQLEESVEEDVKSLKKEYSNENAVVKRMQSLQLDCVAVPSSRSNSATEQPGSLHSSQGLGMGPVEESWFAPSLEHPQEENEPSLQSKLQDEANYHLYGSRMDRQTKQQPRQNVAYNREEERRRRVSHDPFAQQRPYENFQNTEGKGTAYSSAASHGNAVHQPSGLTSQPQVLYQNNGLYSSHGFGTRPLDPGTAGPRVWYRPIPSHMPSLHNIPVPETNYLGNTPTMPFSSLPPTDESIKYTIYNSTGIQIGAYNYMEIGGTSSSLLDSTNTNFKEEPAAKYQAIFDNTTSLTDKHLDPIRENLGKHWKNCARKLGFTQSQIDEIDHDYERDGLKEKVYQMLQKWVMREGIKGATVGKLAQALHQCSRIDLLSSLIYVSQN
notes: Construct and tag not described for this test
B3: IKKβ (enzyme, UniProt O14920 1-756, looked up)
chain: MSWSPSLTTQTCGAWEMKERLGTGGFGNVIRWHNQETGEQIAIKQCRQELSPRNRERWCLEIQIMRRLTHPNVVAARDVPEGMQNLAPNDLPLLAMEYCQGGDLRKYLNQFENCCGLREGAILTLLSDIASALRYLHENRIIHRDLKPENIVLQQGEQRLIHKIIDLGYAKELDQGSLCTSFVGTLQYLAPELLEQQKYTVTVDYWSFGTLAFECITGFRPFLPNWQPVQWHSKVRQKSEVDIVVSEDLNGTVKFSSSLPYPNNLNSVLAERLEKWLQLMLMWHPRQRGTDPTYGPNGCFKALDDILNLKLVHILNMVTGTIHTYPVTEDESLQSLKARIQQDTGIPEEDQELLQEAGLALIPDKPATQCISDGKLNEGHTLDMDLVFLFDNSKITYETQISPRPQPESVSCILQEPKRNLAFFQLRKVWGQVWHSIQTLKEDCNRLQQGQRAAMMNLLRNNSCLSKMKNSMASMSQQLKAKLDFFKTSIQIDLEKYSEQTEFGITSDKLLLAWREMEQAVELCGRENEVKLLVERMMALQTDIVDLQRSPMGRKQGGTLDDLEEQARELYRRLREKPRDQRTEGDSQEMVRLLLQAIQSFEKKVRVIYTQLSKTVVCKQKALELLPKVEEVVSLMNEDEKTVVRLQEKRQKELWNLLKIACSKVRGPVSGSPDSMNASRLSQPGQLMSQPSTASNSLPEPAKKSEELVAEAHNLCTLLENAIQDTVREQDQSFTALDWSWLQTEEEEHSCLEQAS
notes: as for B2
B4: TRAF-6 (other, UniProt Q9Y4K3 1-522, looked up)
chain: MSLLNCENSCGSSQSESDCCVAMASSCSAVTKDDSVGGTASTGNLSSSFMEEIQGYDVEFDPPLESKYECPICLMALREAVQTPCGHRFCKACIIKSIRDAGHKCPVDNEILLENQLFPDNFAKREILSLMVKCPNEGCLHKMELRHLEDHQAHCEFALMDCPQCQRPFQKFHINIHILKDCPRRQVSCDNCAASMAFEDKEIHDQNCPLANVICEYCNTILIREQMPNHYDLDCPTAPIPCTFSTFGCHEKMQRNHLARHLQENTQSHMRMLAQAVHSLSVIPDSGYISEVRNFQETIHQLEGRLVRQDHQIRELTAKMETQSMYVSELKRTIRTLEDKVAEIEAQQCNGIYIWKIGNFGMHLKCQEEEKPVVIHSPGFYTGKPGYKLCMRLHLQLPTAQRCANYISLFVHTMQGEYDSHLPWPFQGTIRLTILDQSEAPVRQNHEEIMDAKPELLAFQRPTIPRNPKGFGYVTFMHLEALRQRTFIKDDTLLVRCEVSTRFDMGSLRREGFQPRSTDAGV
notes: as for B1
B5: NIK (enzyme, UniProt Q99558 1-947, looked up)
chain: MAVMEMACPGAPGSAVGQQKELPKAKEKTPPLGKKQSSVYKLEAVEKSPVFCGKWEILNDVITKGTAKEGSEAGPAAISIIAQAECENSQEFSPTFSERIFIAGSKQYSQSESLDQIPNNVAHATEGKMARVCWKGKRRSKARKKRKKKSSKSLAHAGVALAKPLPRTPEQESCTIPVQEDESPLGAPYVRNTPQFTKPLKEPGLGQLCFKQLGEGLRPALPRSELHKLISPLQCLNHVWKLHHPQDGGPLPLPTHPFPYSRLPHPFPFHPLQPWKPHPLESFLGKLACVDSQKPLPDPHLSKLACVDSPKPLPGPHLEPSCLSRGAHEKFSVEEYLVHALQGSVSSGQAHSLTSLAKTWAARGSRSREPSPKTEDNEGVLLTEKLKPVDYEYREEVHWATHQLRLGRGSFGEVHRMEDKQTGFQCAVKKVRLEVFRAEELMACAGLTSPRIVPLYGAVREGPWVNIFMELLEGGSLGQLVKEQGCLPEDRALYYLGQALEGLEYLHSRRILHGDVKADNVLLSSDGSHAALCDFGHAVCLQPDGLGKSLLTGDYIPGTETHMAPEVVLGRSCDAKVDVWSSCCMMLHMLNGCHPWTQFFRGPLCLKIASEPPPVREIPPSCAPLTAQAIQEGLRKEPIHRVSAAELGGKVNRALQQVGGLKSPWRGEYKEPRHPPPNQANYHQTLHAQPRELSPRAPGPRPAEETTGRAPKLQPPLPPEPPEPNKSPPLTLSKEESGMWEPLPLSSLEPAPARNPSSPERKATVPEQELQQLEIELFLNSLSQPFSLEEQEQILSCLSIDSLSLSDDSEKNPSKASQSSRDTLSSGVHSWSSQAEARSSSWNMVLARGRPTDTPSYFNGVKVQIQSLNGEHLHIREFHRVKVGDIATGISSQIPAAAFSLVTKDGQPVRYDMEVPDSGIDLQCTLAPDGSFAWSWRVKHGQLENRP
notes: as for B1
B6: Ced-4 (other, UniProt P30429 1-549, looked up)
chain: MLCEIECRALSTAHTRLIHDFEPRDALTYLEGKNIFTEDHSELISKMSTRLERIANFLRIYRRQASELGPLIDFFNYNNQSHLADFLEDYIDFAINEPDLLRPVVIAPQFSRQMLDRKLLLGNVPKQMTCYIREYHVDRVIKKLDEMCDLDSFFLFLHGRAGSGKSVIASQALSKSDQLIGINYDSIVWLKDSGTAPKSTFDLFTDILLMLKSEDDLLNFPSVEHVTSVVLKRMICNALIDRPNTLFVFDDVVQEETIRWAQELRLRCLVTTRDVEISNAASQTCEFIEVTSLEIDECYDFLEAYGMPMPVGEKEEDVLNKTIELSSGNPATLMMFFKSCEPKTFEKMAQLNNKLESRGLVGVECITPYSYKSLAMALQRCVEVLSDEDRSALAFAVVMPPGVDIPVKLWSCVIPVDICSNEEEQLDDEVADRLKRLSKRGALLSGKRMPVLTFKIDHIIHMFLKHVVDAQTIANGISILEQRLLEIGNNNVSVPERHIPSHFQKFRRSSASEMYPKTTEETVIRPEDFPKFMQLHQKFYDSLKNFACC
notes: as for B1
B7: TRADD (other, UniProt Q15628 1-312, looked up)
chain: MAAGQNGHEEWVGSAYLFVESSLDKVVLSDAYAHPQQKVAVYRALQAALAESGGSPDVLQMLKIHRSDPQLIVQLRFCGRQPCGRFLRAYREGALRAALQRSLAAALAQHSVPLQLELRAGAERLDALLADEERCLSCILAQQPDRLRDEELAELEDALRNLKCGSGARGGDGEVASAPLQPPVPSLSEVKPPPPPPPAQTFLFQGQPVVNRPLSLKDQQTFARSVGLKWRKVGRSLQRGCRALRDPALDSLAYEYEREGLYEQAFQLLRRFVQAEGRRATLQRLVEALEENELTSLAEDLLGLTDPNGGLA
notes: as for B1
B8: IKKα (enzyme, UniProt O15111 1-745, looked up)
chain: MERPPGLRPGAGGPWEMRERLGTGGFGNVCLYQHRELDLKIAIKSCRLELSTKNRERWCHEIQIMKKLNHANVVKACDVPEELNILIHDVPLLAMEYCSGGDLRKLLNKPENCCGLKESQILSLLSDIGSGIRYLHENKIIHRDLKPENIVLQDVGGKIIHKIIDLGYAKDVDQGSLCTSFVGTLQYLAPELFENKPYTATVDYWSFGTMVFECIAGYRPFLHHLQPFTWHEKIKKKDPKCIFACEEMSGEVRFSSHLPQPNSLCSLVVEPMENWLQLMLNWDPQQRGGPVDLTLKQPRCFVLMDHILNLKIVHILNMTSAKIISFLLPPDESLHSLQSRIERETGINTGSQELLSETGISLDPRKPASQCVLDGVRGCDSYMVYLFDKSKTVYEGPFASRSLSDCVNYIVQDSKIQLPIIQLRKVWAEAVHYVSGLKEDYSRLFQGQRAAMLSLLRYNANLTKMKNTLISASQQLKAKLEFFHKSIQLDLERYSEQMTYGISSEKMLKAWKEMEEKAIHYAEVGVIGYLEDQIMSLHAEIMELQKSPYGRRQGDLMESLEQRAIDLYKQLKHRPSDHSYSDSTEMVKIIVHTVQSQDRVLKELFGHLSKLLGCKQKIIDLLPKVEVALSNIKEADNTVMFMQGKRQKEIWHLLKIACTQSSARSLVGSSLEGAVTPQTSAWLPPTSAEHDHSLSCVVTPQDGETSAQMIEENLNCLGHLSTIIHEANEEQGNSMMNLDWSWLTE
notes: as for B2
B9: TRAF-1 (other, UniProt Q13077 1-416, looked up)
chain: MASSSGSSPRPAPDENEFPFGCPPTVCQDPKEPRALCCAGCLSENPRNGEDQICPKCRGEDLQSISPGSRLRTQEKAHPEVAEAGIGCPFAGVGCSFKGSPQSVQEHEVTSQTSHLNLLLGFMKQWKARLGCGLESGPMALEQNLSDLQLQAAVEVAGDLEVDCYRAPCSESQEELALQHFMKEKLLAELEGKLRVFENIVAVLNKEVEASHLALATSIHQSQLDRERILSLEQRVVELQQTLAQKDQALGKLEQSLRLMEEASFDGTFLWKITNVTRRCHESACGRTVSLFSPAFYTAKYGYKLCLRLYLNGDGTGKRTHLSLFIVIMRGEYDALLPWPFRNKVTFMLLDQNNREHAIDAFRPDLSSASFQRPQSETNVASGCPLFFPLSKLQSPKHAYVKDDTMFLKCIVETST
notes: as for B1

Molecular target: T1, HA-tagged wild-type Nod2 (human, UniProt Q9HC29 1-1040)
T1 construct: Expressed by transfection in HEK293T cells and tested in cell lysates; also called wt Nod2; pcDNA3-Nod2-HA; not shown: HA tag
Experiment: co-immunoprecipitation from co-transfected HEK293T cells
Description: The CARD motif functions as an effector domain that mediates specific homophilic interaction with downstream CARD-containing molecules (Hofmann et al., Trends Biochem. Sci. 22: 155-156 [1997]).

T1 sequence (Q9HC29 whole entry R703H): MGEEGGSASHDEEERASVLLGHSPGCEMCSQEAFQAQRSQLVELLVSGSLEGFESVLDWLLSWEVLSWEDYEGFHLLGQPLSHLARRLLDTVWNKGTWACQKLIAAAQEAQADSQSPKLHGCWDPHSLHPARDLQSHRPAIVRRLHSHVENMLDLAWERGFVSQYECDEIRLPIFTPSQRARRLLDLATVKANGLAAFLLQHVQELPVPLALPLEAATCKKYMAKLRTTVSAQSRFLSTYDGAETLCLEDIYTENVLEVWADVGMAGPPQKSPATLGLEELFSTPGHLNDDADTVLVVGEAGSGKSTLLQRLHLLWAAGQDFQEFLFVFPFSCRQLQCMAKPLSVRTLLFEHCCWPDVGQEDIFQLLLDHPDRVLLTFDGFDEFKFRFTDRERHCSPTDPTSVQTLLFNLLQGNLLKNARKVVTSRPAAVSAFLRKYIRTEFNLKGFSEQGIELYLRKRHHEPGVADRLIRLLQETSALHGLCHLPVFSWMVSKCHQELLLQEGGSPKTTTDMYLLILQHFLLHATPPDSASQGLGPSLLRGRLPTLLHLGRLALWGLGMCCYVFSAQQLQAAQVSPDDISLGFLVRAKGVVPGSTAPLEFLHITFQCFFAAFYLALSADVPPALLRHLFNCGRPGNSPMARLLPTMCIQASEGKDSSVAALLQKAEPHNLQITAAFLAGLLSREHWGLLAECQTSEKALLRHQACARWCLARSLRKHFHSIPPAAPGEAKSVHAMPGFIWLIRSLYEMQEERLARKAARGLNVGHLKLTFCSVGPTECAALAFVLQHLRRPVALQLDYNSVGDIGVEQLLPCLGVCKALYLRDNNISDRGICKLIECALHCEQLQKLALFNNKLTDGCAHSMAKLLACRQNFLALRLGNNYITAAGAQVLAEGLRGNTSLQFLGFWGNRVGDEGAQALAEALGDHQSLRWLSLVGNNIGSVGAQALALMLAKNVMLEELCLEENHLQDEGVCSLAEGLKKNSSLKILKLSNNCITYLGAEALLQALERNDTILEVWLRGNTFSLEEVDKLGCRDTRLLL

Binding result, no binding:
B1
B2
B3
B4
B5
B6
B7
B8
B9
